B1: H2-Kb / Ed16-1 (parent complex)
chain 1: GEQVEQRPPHLSVREGDSAVITCTYTDPNSYYFFWYKQEPGASLQLLMKVFSSTEINEGQGFTVLLNKKDKRLSLNLTAAHPGDSAAYFCAVSGSNNRIFFGDGTQLVVKP
chain 2: EAAVTQSPRSKVAVTGGKVTLSCHQTNNHDYMYWYRQDTGHGLRLIHYSYVADSTEKGDIPDGYKASRPSQENFSLILELASLSQTAVYFCASRTGTDYTFGSGTRLLVI
chain 3: not shown
chain 4: IQKTPQIQVYSRHPPENGKPNILNCYVTQFHPPHIEIQMLKNGKKIPKVEMSDMSFSKDWSFYILAHTEFTPTETDTYACRVKHDSMAEPKTVYWDRDM
chain 5: SIINFEKL
B2: H2-Kb / Ed10 (parent complex)
chain 1: GEQVEQRPPHLSVREGDSAFIICTYTDSATAYFYWYKQEPGAGLQLLMSVFSNVDRKEEQGLTVLLNKKDKRLSLNLTAAHPGDSAVYFCAVRGTGYQNFYFGKGTSLTVIP
chain 2: AQTIHQWPVAEIKAVGSPLSLGCTIKGKSSPNLYWYWQATGGTLQQLFYSITVGQVESVVQLNLSASRPKDDQFILSTEKLLLSHSGFYLCAWSPGYEQYFGPGTRLTVL
chain 3: not shown
chain 4: B1 chain 4
chain 5: SIINFEKL
Note: test concentration or dose not given here.

Variants of B1 are the subject of the first assay. The experiment in a line: % of reporter cells activated (NFAT-GFP), raw.
With chain 5 L8K, the ratio to parent was 0.951.
chain 5 S1D: the ratio to parent stood at 0.0292.

A further assay covers variants of B2. The experiment in a line: % of reporter cells activated (NFAT-GFP), raw.
Regarding chain 5 E6A, the ratio to parent came out at 0.0198.
Take chain 5 E6N: the ratio to parent turned out to be 0.0352.
On the same count and under the same terms, the figure for chain 5 E6Q is 0.19; for chain 5 E6V it is 0.00689.
Still for that read-out and setting: the same measure for chain 5 E6D: 0.557; for chain 5 E6K: 0.878; for chain 5 E6P: 0.045.
Still for that read-out and setting: the figure for chain 5 E6C is 0.00556.
For chain 5 E6M, the ratio to parent amounted to 0.384.
Same read-out and setting: the figure for chain 5 E6W is 0.00924; for chain 5 E6I it is 0.00258; for chain 5 E6Y it is 0.503.
For chain 5 E6L, the ratio to parent stood at 0.0597.
Same read-out and setting: the figure for chain 5 E6T is 0.0117; for chain 5 E6H it is 0.377; for chain 5 E6R it is 0.0435.
The same measure, in the same setting: the same measure for chain 5 E6F: 0.0734; for chain 5 N4H: 0.777; for chain 5 N4G: 0.0998.
Turning to chain 5 N4C, the ratio to parent came out at 0.13.
Same read-out and setting: the figure for chain 5 N4L is 0.728; for chain 5 N4E it is 0.178; for chain 5 N4M it is 0.127.
Still for that read-out and setting: the same measure for chain 5 N4W: 0.424.
Same read-out and setting: the figure for chain 5 N4K is 0.342; for chain 5 N4Q it is 0.189.
chain 5 N4R: the ratio to parent worked out at 0.104.
The same measure, in the same setting: the same measure for chain 5 N4D: 0.847; for chain 5 N4Y: 0.354.
Still for that read-out and setting: the same measure for chain 5 N4V: 0.00517; for chain 5 N4I: 0.0807.
Still for that read-out and setting: the same measure for chain 5 N4A: 0.353; for chain 5 N4P: 0.551.
Take chain 5 N4S: the ratio to parent came out at 0.33.
Same read-out and setting: the same measure for chain 5 N4F: 0.0998; for chain 5 N4T: 0.0278; for chain 5 S1F: 0.726.
Still for that read-out and setting: the same measure for chain 5 S1D: 0.938.
Still for that read-out and setting: the figure for chain 5 S1K is 0.841; for chain 5 S1C it is 0.759.
For the variant chain 5 S1Y, the ratio to parent was found to be 1.
On the same count and under the same terms, the same measure for chain 5 S1E: 0.888.
The same measure, in the same setting: the same measure for chain 5 S1R: 0.72.
The same measure, in the same setting: the figure for chain 5 S1I is 0.814; for chain 5 S1A it is 0.977; for chain 5 S1P it is 0.946.
As for chain 5 S1Q, the ratio to parent was determined as 0.931.
Still for that read-out and setting: the same measure for chain 5 S1L: 0.914; for chain 5 S1G: 0.978; for chain 5 S1M: 1.02.
Turning to chain 5 S1V, the ratio to parent worked out at 0.913.
Same read-out and setting: the same measure for chain 5 S1T: 1.01; for chain 5 S1N: 0.524.
Still for that read-out and setting: the figure for chain 5 F5S is 0.764; for chain 5 F5E it is 0.78.
As for chain 5 F5I, the ratio to parent was found to be 0.815.
chain 5 F5G: the ratio to parent was 0.581.
Still for that read-out and setting: the same measure for chain 5 F5H: 0.876; for chain 5 F5T: 0.758.
Regarding chain 5 F5Y, the ratio to parent is 1.03.
On the same count and under the same terms, the figure for chain 5 F5Q is 0.879.
The same measure, in the same setting: the figure for chain 5 F5W is 0.659; for chain 5 F5C it is 0.857.
Regarding chain 5 F5V, the ratio to parent was determined as 0.775.
The same measure, in the same setting: the figure for chain 5 F5K is 0.688.
On the same count and under the same terms, the figure for chain 5 F5A is 0.912; for chain 5 F5M it is 0.958; for chain 5 F5R it is 0.815.
The same measure, in the same setting: the same measure for chain 5 F5L: 0.925; for chain 5 F5N: 0.711.
Regarding chain 5 F5P, the ratio to parent was 0.437.
Still for that read-out and setting: the figure for chain 5 F5D is 0.897; for chain 5 I3S it is 0.873.
Consider chain 5 I3R, for which the ratio to parent is 0.631.
Turning to chain 5 I3G, the ratio to parent turned out to be 0.724.
On the same count and under the same terms, the figure for chain 5 I3D is 0.691; for chain 5 I3M it is 0.913.
For chain 5 I3P, the ratio to parent was 0.933.
Same read-out and setting: the figure for chain 5 I3N is 0.683; for chain 5 I3C it is 0.914.
Still for that read-out and setting: the same measure for chain 5 I3A: 0.96; for chain 5 I3K: 0.828.
Same read-out and setting: the figure for chain 5 I3Y is 0.368; for chain 5 I3E it is 0.916.
Turning to chain 5 I3W, the ratio to parent worked out at 0.739.
chain 5 I3H: the ratio to parent amounted to 0.828.
Same read-out and setting: the same measure for chain 5 I3Q: 0.826; for chain 5 I3T: 0.829; for chain 5 I3L: 0.972.
The same measure, in the same setting: the figure for chain 5 I3V is 0.927.
On the same count and under the same terms, the same measure for chain 5 I3F: 0.713; for chain 5 K7M: 0.28; for chain 5 K7T: 0.102.
As to chain 5 K7E, the ratio to parent turned out to be 0.00697.
Still for that read-out and setting: the same measure for chain 5 K7D: 0.355.
Still for that read-out and setting: the same measure for chain 5 K7V: 0.563.
On the same count and under the same terms, the same measure for chain 5 K7Y: 0.402.
As to chain 5 K7Q, the ratio to parent came to 0.0405.
Still for that read-out and setting: the figure for chain 5 K7P is 0.685; for chain 5 K7S it is 0.744; for chain 5 K7A it is 0.495.
The same measure, in the same setting: the same measure for chain 5 K7R: 0.668.
Still for that read-out and setting: the same measure for chain 5 K7W: 0.601; for chain 5 K7C: 0.143.
Consider chain 5 K7I, for which the ratio to parent amounted to 0.00197.
Same read-out and setting: the figure for chain 5 K7G is 0.79.
The same measure, in the same setting: the same measure for chain 5 K7L: 0.461.
On the same count and under the same terms, the figure for chain 5 K7H is 0.183.
Take chain 5 K7F: the ratio to parent stood at 0.184.
The same measure, in the same setting: the figure for chain 5 K7N is 0.726; for chain 5 L8Y it is 0.956; for chain 5 L8I it is 0.864.
The same measure, in the same setting: the figure for chain 5 L8A is 0.858.
Same read-out and setting: the figure for chain 5 L8V is 0.721; for chain 5 L8W it is 0.702; for chain 5 L8D it is 0.803.
For chain 5 L8K, the ratio to parent came to 0.88.
Same read-out and setting: the figure for chain 5 L8P is 0.885.
On the same count and under the same terms, the same measure for chain 5 L8R: 0.949; for chain 5 L8F: 0.838; for chain 5 L8E: 0.721.
For chain 5 L8G, the ratio to parent was 0.937.
Still for that read-out and setting: the same measure for chain 5 L8Q: 0.897; for chain 5 L8H: 0.916.
Still for that read-out and setting: the same measure for chain 5 L8S: 0.74; for chain 5 L8C: 0.921; for chain 5 L8N: 0.862.
On the same count and under the same terms, the same measure for chain 5 L8T: 0.81.
For the variant chain 5 L8M, the ratio to parent came to 0.813.
The same measure, in the same setting: the same measure for chain 5 I2E: 0.966; for chain 5 I2Q: 0.914; for chain 5 I2M: 0.933.
Same read-out and setting: the same measure for chain 5 I2K: 0.876; for chain 5 I2R: 0.712; for chain 5 I2H: 0.915.
On the same count and under the same terms, the figure for chain 5 I2F is 0.941; for chain 5 I2N it is 0.841; for chain 5 I2Y it is 0.898.
Consider chain 5 I2T, for which the ratio to parent came out at 1.02.
The same measure, in the same setting: the figure for chain 5 I2G is 0.939.
On the same count and under the same terms, the figure for chain 5 I2C is 0.907; for chain 5 I2S it is 0.988; for chain 5 I2W it is 0.751.
The same measure, in the same setting: the same measure for chain 5 I2L: 0.955.
With chain 5 I2V, the ratio to parent is 0.962.
Same read-out and setting: the same measure for chain 5 I2D: 0.977; for chain 5 I2P: 0.973.
Same read-out and setting: the same measure for chain 5 I2A: 1.02.

These data come from publication PMC11480844 (2024).
